Laboratory results from the nanobody polyreactivity screen of Harvey et al. (2022).

Experiment: yeast display, Sf9 membrane polyspecificity reagent, FACS + sequencing; frameworks hold sequencing errors
Outline: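 Sorting gates, low and high (top ~1%), were placed on anti-HA fluorescence to track expression and on streptavidin fluorescence to track reagent binding. A clone's polyreactivity label is taken from the gate it came out of. The reagent was 10% biotinylated, detergent-solubilized Sf9 membrane, applied for 1 hour at 4 °C to galactose-induced yeast display cells.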

| Sequence | polyreactivity (PSR sort gate) |
| --- | --- |
| QVQLVESGGGLVQAGGSLRLSCAASGLIFRFYAMGWYRQAPGKERELVAAISSRGGSTYYADSVKGRFTISRDNAKNTVYLQMNSLKPEDTAVYYCAAVFSLIASSYDYWGQGTQVTVSS | high polyreactivity |
| QVQLVESGGGLVQAGGSLRLSCAASGLIFRPYAMGWYRQAPGKEREFVAAITWSTGSTYYADSVKGRFTISRDYAKNTVYLQMNSLKPEDTAVYYCAARYTVWRRDYNYWGQGTQVTVSS | high polyreactivity |
| QVQLVESGGGLVQAGGSLRLSCAASGLIFRQYPMGWYRQAPGKERELVAAITGSGGRTYYADSVKGRFTISRDNAKNTVYLQMNSLKPEDTAVYYCARPNLLSGDYWGQGTQVTVSS | high polyreactivity |
| QVQLVESGGGLVQAGGSLRLSCAASGLIFRRYAMGWYRQAPGKERELVAAITRNGGSTYYADSVKGRFTISRDNAKNTVYLQMNSLKPEDTAVYYCAADRYRRRGGLDYWGQGTQVTVSS | high polyreactivity |
| QVQLVESGGGLVQAGGSLRLSCAASGLIFRRYAMGWYRTAPGKERELVAAISSSGSTYYADSVKGRFTISRDNAKNTVYLQMNSLKPEDTAVYYCNKVTGRNADRYGYWGQGTQVTVSS | high polyreactivity |
| QVQLVESGGGLVQAGGSLRLSCAASGLIFRRYTMGRYRQATGKERELVAAISRGGASTSYADSVKGRFTISRDNAKNTVYLQMNSLIPEDTAVYYCAATSPRSSRTYAYDYWGQGTQVTVSS | high polyreactivity |
| QVQLVESGGGLVQAGGSLRLSCAASGLIFRVYAMGWYRQAPGKERELVATITRGGRTYYADSVKGRFTISRDNAKNTVYLQMNSLKPEDTAVYYCAVLSVRRSYNYWGQGTQVTVSS | high polyreactivity |
| QVQLVESGGGLVQAGGSLRLSCAASGLIFRWYAMGWYRQAPGTERELVAAISRRGGTTNYADSVKGRFTISRDNAKNTVYLQMNSLKPEDTAVYYCAADYQSVGGAEYDYWGQCTQVTVSS | high polyreactivity |
| QVQLVESGGGLVQAGGSLRLSCAASGLIFRYNTMGWYRQAPGKERELVAAITSSGGSTYYADSVKGRFTISRDNAKNTVYLQMNSLKPEDTAVYYCAKRSFYFSDYDYWGQGTQVTVSS | high polyreactivity |
| QVQLVESGGGLVQAGGSLRLSCAASGLIFRYYAMGWYRQAPGKERELVAAISWSGASTYYADSVKGRFTISRDNAKNTVYLQMNSLKPEDTAVYYCGRVSYYYPSEYNYWGQGTQVTVSS | high polyreactivity |
| QVQLVESGGGLVQAGGSLRLSCAASGLIFRYYAMGWYRQAPGKERELVAVINYSGGRTYYADSVKGRFTISRDNAKNTVYLQMNSLKPEDTAVYYCAASFASKYEYWGQGTQVTVSS | high polyreactivity |
| QVQLVESGGGLVQAGGSLRLSCAASGLIFRYYAMGWYRQAPGKERELVAVISRRGDSTYYADSVKGRFTISRDNAKNTVYLHMNSLKPEDTAVYYCAAQAFVSYFKFRGGYWGQGTQVTVSS | high polyreactivity |
| QVQLVESGGGLVQAGGSLRLSCAASGLIFRYYTMGWYRQAPGKERELVATITKSGSSTYYADSVKGRFTISRDNAKNTVYLQMNSLKPEDTAVYYCAARAYPSYPRGVYAYYYWGQGTQVTVSS | high polyreactivity |
| QVQLVESGGGLVQAGGSLRLSCAASGLIFSAYAMGWYRQAPGKERELVAAISRRGTSTYYADSVKGRFTISRDNAKNTVYLQMNSLKPEDTGVYYCAADGYVFEGDYWGQGTQVTVSS | high polyreactivity |
| QVQLVESGGGLVQAGGSLRLSCAASGLIFSAYAMGWYRQAPGKERELVAGISRRGSTYYADSVKGRFTISRDNAKNTVYLEMNCLKPEDTAVYYFAAFFRVRFRASGYDYWGQGTQVTVSS | high polyreactivity |
| QVQLVESGGGLVQAGGSLRLSCAASGLIFSRNAMGWNRPAPGKERELVAAISTGGSTYYADSVKGRFTISRDNAKNTVYLQMNRLKPVDTAVYYCAAAPGYIYEYWGQGTQVTVSS | low polyreactivity |
| QVQLVESGGGLVQAGGSLRLSCAASGLIFSRYTMGWYRQAPGKERELVAAISKTGSSTYYADSVKGRFTISRDNAKNTVYLQMNSLKPEDTAVYYCAAETGTGETRYYRYWDYYYWGQGTQVTVSS | high polyreactivity |
| QVQLVESGGGLVQAGGSLRLSCAASGLIFSSNAMGWYRQAPGKERELVAAISRRGANTYYADSVKGRFTISRDNAKNTVYLQMNSLKPQDTAVYYCAKRYVGRGTSYQDYYWGQGTQVTVSS | high polyreactivity |
| QVQLVESGGGLVQAGGSLRLSCAASGLIFSSYAMGLNRQAPGKEREFVAAISRTGGITYYADSVKGRFTISRDYAKNTVYLQMNSLKPEDTAVYYCNARWYDPTLKVGYWGQVTQVTVSS | high polyreactivity |
| QVQLVESGGGLVQAGGSLRLSCAASGLIFSSYAMGWYRQAPGKERELVAAISRSGGRTYYADSVKGRFTISRDNAKNTVYLQMNSLKPEDTAVYYCAADRFRSGLDRPEMDYWGQGTQVTVSS | high polyreactivity |
| QVQLVESGGGLVQAGGSLRLSCAASGLIFSYKTMGWYRQAPGKERELVAAITSGGRTYYADSVKGRFTISRDNAKNTVYLQMNSLKPEDTAVYYCAVLSKWRYDYWGQGTQVTVSS | high polyreactivity |
| QVQLVESGGGLVQAGGSLRLSCAASGLIFSYNAMGWYRQAPGKERELVAAISYSGGSTYYADSVKGRFTISRDNAKNTVYLQMNSLKPEDTAVYYCAAVLSPDFYYWGQGTQVTVSS | high polyreactivity |

| Sequence | polyreactivity (PSR sort gate) |
| --- | --- |
| QVQLVESGGGLVQAGGSLRLSCAASGLIFSYNAMGWYRQAPGKVRELVATSRRVGSTHYADSVKGRFTISRDNAKNTVYLPMNSLKPEDTAVYDCAARSLRYGRGMYYWGQGTQGTVSS | high polyreactivity |
| QVQLVESGGGLVQAGGSLRLSCAASGLIFSYYAMGWYRQAPGKERELVAAISRGGSTNYADSVKGRFTISRDDAKNTVYLQMNSLKPEDTAVYYCAARWQWLNGYYYWGQGTQVTVSS | high polyreactivity |
| QVQLVESGGGLVQAGGSLRLSCAASGLIFTGNVMGWYRQAPGKERELVAAISRSGGRTYYADSVKGRFTISRDNAKNTVYLQMNSLKPEDTAVYYCNKVSPERVYYGSYFRYYYWGQGTQVTVSS | high polyreactivity |
| QVQLVESGGGLVQAGGSLRLSCAASGLIFTVYAMGWYRQAPGKERELVAAISGTGGSTYYADSVKGRFTISRDNAKNTVYLQMNSLIPEDTAVYYCAAVPIIRLATTSSSRGDYWGQGTQVTVSS | low polyreactivity |
| QVQLVESGGGLVQAGGSLRLSCAASGLIFTYYAMGWYRQAPGKERELVAAISSSGVNTYYADSVKGRFTISRDNAKNTVYLQMNSLKPEDTAVYYCAAELQPSPVGGIIQYGFDYWGQGTPVTVSS | low polyreactivity |
| QVQLVESGGGLVQAGGSLRLSCAASGLIFVANAMGWYRQAPGKERELVAAISRSGGITYYADSVKGRFTISRDNAKNTVYLQMNSLKPQDTAVYYCAKTLPSNGHYDYWGQGTQVTVSS | low polyreactivity |
| QVQLVESGGGLVQAGGSLRLSCAASGLIFVDNAMGLYRQAPGKERELVAAIDSGGSTNYADSVKGRFTISRDNAKTTVYLQMNSLNPEDTAVYYCAADWIYAPWYYQESVEYYYWGQGTQVTVSS | low polyreactivity |
| QVQLVESGGGLVQAGGSLRLSCAASGLIFVDNAMGWYRPAPGKEREVVAAIDSGGSTNYADSVKGRFTISRDNAKNTVYLQMNSLKPEDTAVYYCAADWIYAPWYYQESVEYYYWGQGTQVTVSS | low polyreactivity |
| QVQLVESGGGLVQAGGSLRLSCAASGLIFVFYAMGWYRQAPGKERELVAAISRSGTSTYADSVKGRFTISRDNAKNTVYLQMNSLKPEDTAVYYCNAYRYYSPYGYWGQGTQVTVSS | low polyreactivity |
| QVQLVESGGGLVQAGGSLRLSCAASGLIFVKYAMGWYRQAPGKERELVADITSTGGSTYYADSVKGRFTISRDNAKNTVYLQMNSLKPEDTAVYYCATDYGYYDYWGQGTQVTVSS | low polyreactivity |
| QVQLVESGGGLVQAGGSLRLSCAASGLIFVNAMGWYRQAPGKEREFVAAITYSTGSTYYADSVKGRFTISRDNAKNTVYLQMNRLKPEDTAVYYCAKDRSGHGTERDYWGQGTQVTVSS | low polyreactivity |
| QVQLVESGGGLVQAGGSLRLSCAASGLIFVRYAMGWYRQAPGKERELVAAISRGGTTYYADSVKGRFTISRDNAKNTVYLQMNSLKPEDTAVYYCAVGIRYSKDYYYWGQGTQVTVSS | high polyreactivity |
| QVQLVESGGGLVQAGGSLRLSCAASGLIFVSNAMGWYRQAPGKERELVAAISWSGSRTYYADSVKGRFTISRDNAKNTVYLQMNSLKPEDTAVYYCNAVRRGLPVVGAYDYWGQGTQVTVSS | high polyreactivity |
| QVQLVESGGGLVQAGGSLRLSCAASGLIFVSYAMGWYRQAPGKERELVAAISSGGSTYYADSVKGRFTISRDNAKNTVYLQMNSLKPEDTAVYYCAAEYVFRGYVGYDYWGQGTQVTVSS | low polyreactivity |
| QVQLVESGGGLVQAGGSLRLSCAASGLIFWAYAMGWYRQAPGKERELVAAISWSGARTYYADSVKGRFTISRDNAKNTVYLQMNILKPEDTAVYYCAAGLSSSSSGYEGDYWGLGTQVTVSS | high polyreactivity |
| QVQLVESGGGLVQAGGSLRLSCAASGLIFWKYAMGWYREAPGKERELVAAITSGGSTNYADSVKGRFTISRDNAKNPVYLQMNSLKPEDTAVYYCNARSWFEYYWGQGTQVTVSS | high polyreactivity |
| QVQLVESGGGLVQAGGSLRLSCAASGLIFWKYARGWYRQAPGKERELVAAIRKSVGSTYYADSVKGRFTISRDNAKNTVYLQMNSLKPEDTAVYYCAAVNAGVGSPVKRDYWGQGTQVTVSS | high polyreactivity |
| QVQLVESGGGLVQAGGSLRLSCAASGLIFWLNAMGWYRQAPGKERELVATITAGGDDTNYADSVKGRFTISRDNAKNTVYLQMNSLKPEDTAVYYCAKSRTRSGHYGYDYWGQGTQVTVSS | low polyreactivity |
| QVQLVESGGGLVQAGGSLRLSCAASGLIFWYSAMGWYRQAPGKERELVAAISSGGSTNYADSVKGRFTISRDNAKNTVYLQMNSLKPEDTAVYYCNVYTYRFHTARQAVDYWGQGTQVTVSS | low polyreactivity |
| QVQLVESGGGLVQAGGSLRLSCAASGLIFYDNMGWYRQAPGKERELVAAISSSGGSTSYADSVKGRFTISRDNAKNTVYLQMNSLKPEDTAVYDSAADSYPAYLGFVGFDYWGQGTQVTVSS | low polyreactivity |
| QVQLVESGGGLVQAGGSLRLSCAASGLIFYDNVMGWYRQAPVKEREFVAAITSIGGSTYYADSVKGRFTISRDNAKNTVYLQMNSLKPEDTAVYYCNVKSKYYSPNYDYWGQGTQVTVSS | low polyreactivity |
